Data on 17 sequences can be found in the DeepSol protein solubility set.

This data set is described as follows: soluble on expression in E. coli; label from the status in PepcDB or PDB records.
Consider “MEIGVVGKPNVGKSTFFSAATLVDVEIANYPFTTIEANVGVTYAITDHPCKELGCSPNPQNYEYRNGLALIPVKMVDVAGLVPGAHEGRGLGNKFLDDLRMASALIHVVDATGKTDPEGQPTDYHDPVEDIEFLEREIDYWIYGILSKGWDKFAKRIKLQKIKLESAIAEHLSGIGVNENDVWEAMHKLNLPEDPTKWSQDDLLAFASEIRRVNKPMVIAANKADAASDEQIKRLVREEEKRGYIVIPTSAAAELTLRKAAKAGFIEYIPGASEFKVLRDMSEKQKRALMVIKEKVLDRFGSTGVQEVINRVVFDLLKLIPVYPVHDENKLTDQFGNVLPHVFLMKKGSTPRDLAFKVHTDLGKGFLYAINARTKRRVGEDYELQFNDIVKIVSVTR”, for which the “soluble on expression in E. coli” value is “soluble”.

Turning to “MGSDKIHHHHHHMKFKIHSDITYQVMSPTTFIFNVHALRTESQHILDESLIVTPPIEIEEFSYNSGTSRFVRLKATENTTFSMSYTATVDTQYKVIDQRQELETVPVVDLDGDIIPFLFPSRYCQSDKLQKLAYKEFGKIENVYSKVLAITDWIYNNVEYISGSTNSQTSAFDTITERAGVCRDFAHLGIALCRALSIPARYFTGYAFKLNPPDFHACFEAYIGGNWIIFDATRLVPLNGLVKIATGRDAADAAVASIFGNASSTNMHVECASLDTDFTPFWYDKNSLKGLSFQ”, the “soluble on expression in E. coli” value is “not soluble”.

“MGSSHHHHHHSSGLEVLFQGPLHMGIKYQKIGDVVIVKKELSEDEIREIVKRTKCKAILLYTTQITGEFRTPHVKILYGKETETIHKEYGCLFKLDVAKIMWSQGNIEERKRMAFISNENEVVVDMFAGIGYFTIPLAKYSKPKLVYAIEKNPTAYHYLCENIKLNKLNNVIPILADNRDVELKDVADRVIMGYVHKTHKFLDKTFEFLKDRGVIHYHETVAEKIMYERPIERLKFYAEKNGYKLIDYEVRKIKKYAPGVWHVVVDAKFERI”: the “soluble on expression in E. coli” value is listed as “soluble”.

As to “MSLRVLGIETSCDETGIAIYDDEKGLLANQLYSQVKLHADYGGVVPELASRDHVRKTVPLIQAALKESGLTAKDIDAVAYTAGPGLVGALLVGATVGRSLAFAWDVPAIPVHHMEGHLLAPMLEDNPPEFPFVALLVCGGHTQLISVTGIGQYELLGESIDDAAGEAFDKTAKLLGLDYPGGPLLSKMAAQGTAGRFVFPRPMTDRPGLDFSFSGLKTFAANTIRDNGTDDQTRADIARAFEDAVVDTLMIKCKRALDQTGFKRLVMAGGVSANRTLRAKLAEMMKKRRGEVFYARPEFCTDNGAMIAYAGMVRFKAGATADLGVSVRPRWPLAELPAEGHHHHHH”, the “soluble on expression in E. coli” value is “soluble”.

Consider “MSEEIKKIEEVAEQDKAPKVPTTEPPVDVPAPVTEEAPKVEEAVAEIAAPAAAEGETATAAAAAPEEKKKSGGVARRFTFNKRWGKHRDAEASTPKEPEAPKDPKEDVLGWIAQQIPQAVHKANYQVIDWVQKTAIPEEGERKTIPGKDQATTRNQFIGFFKDGDVLAKLANALEPGAVEVAAAEENADAAAQKEVQKKNIDAFGAWAQKTLGTEAAPVTNEDLLEKGKAGYTAVFQTLWQLGVQAKEKFDKEGFNVDTIVQLANSVVKSGLLTTILGFFRRNRQAAAAVEEPKDETAAAEGAGEAKEEGATGEVADTADEPVAVKQETSAPAAVAAN”, for which the “soluble on expression in E. coli” value is “not soluble”.

With “TEHLTLAFKIERPYDKVLKTISKKNLKNYIKETFNFFKSGYMKQNYLGSENDVIELDDVANIMFYGEGEVGDNHQKFMLIFDTGSANLWVPSKKCNSSGCSIKNLYDSSKSKSYEKDGTKVDITYGSGTVKGFFSKDLVTLGHLSMPYKFIEVTDTDDLEPIYSSVEFDGILGLGWKDLSIGSIDPIVVELKNQNKIDNALFTFYLPVHDVHAGYLTIGGIEEKFYEGNITYEKLNHDLYWQIDLDVHFGKQTMEKANVIVDSGTTTITAPSEFLNKFFANLNVIKVPFLPFYVTTCDNKEMPTLEFKSANNTYTLEPEYYMNPILEVDDTLCMITMLPVDIDSNTFILGDPFMRKYFTVFDYDKESVGFAIAKN”, the “soluble on expression in E. coli” value is listed as “soluble”.

For the sequence “MIPVILSGGSGSRLWPLSRKQYPKQFLALTGDDTLFQQTIKRLAFDGMQAPLLVCNKEHRFIVQEQLEAQNLASQAILLEPFGRNTAPAVAIAAMKLVAEGRDELLLILPADHVIEDQRAFQQALALATNAAEKGEMVLFGIPASRPETGYGYIRASADAQLPEGVSRVQSFVEKPDEARAREFVAAGGYYWNSGMFLFRASRYLEELKKHDADIYDTCLLALERSQHDGDLVNIDAATFECCPDNSIDYAVMEKTSRACVVPLSAGWNDVGSWSSIWDVHAKDANGNVTKGDVLVHDSHNCLVHGNGKLVSVIGLEDIVVVETKDAMMIAHKDRVQDVKHVVKDLDAQGRSETQNHCEVYRPWGSYDSVDMGGRFQVKHITVKPGARLSLQMHHHRAEHWIVVSGTAQVTCDDKTFLLTENQSTYIPIASVHRLANPGKIPLEIIEVQSGSYLGEDDIERLEDVYGRTAEPALQVVAGSR”, the “soluble on expression in E. coli” value is reported as “not soluble”.

As for “MRNPKQTRGKQTKSKIINAAFELFSEKGYTGTSSNEIASRAEVAIGSFYSYFKDKKQLFIEVLKDYYDNISKISFSNINGTISNLDDFLYESIKIALKAHEYHPEFHREVNIMELADDDIKKLIVGYEKVKFDSFKKLVEPYKNEFKNLNFNEALFLIYTTIENTVHVITFSTDTNLNKETLIKELISMIKSYINA”, the “soluble on expression in E. coli” value was “not soluble”.

Consider “MGHHHHHHSHVFKIEDKIGEGTFSSVYLATAQLQVGPEEKIALKHLIPTSHPIRIAAELQCLTVAGGQDNVMGVKYCFRKNDHVVIAMPYLEHESFLDILNSLSFQEVREYMLNLFKALKRIHQFGIVHRDVKPSNFLYNRRLKKYALVDFGLAQGTHDTKIELLKFVQSEAQQERCSQNKSHIITGNKIPLSGPVPKELDQQSTTKASVKRPYTNAQIQIKQGKDGKEGSVGLSVQRSVFGERNFNIHSSISHESPAVKLMKQSKTVDVLSRKLATKKKAISTKVMNSAVMRKTASSCPASLTCDCYATDKVCSICLSRRQQVAPRAGTPGFRAPEVLTKCPNQTTAIDMWSAGVIFLSLLSGRYPFYKASDDLTALAQIMTIRGSRETIQAAKTFGKSILCSKEVPAQDLRKLCERLRGMDSSTPKLTSDIQGHASHQPAISEKTDHKASC”, for which the “soluble on expression in E. coli” value is recorded as “soluble”.

Turning to “MRCQPFCRNLAGFPQNSPAQSTTMTYTHGSALPSTDDVTIDADVATEELTGTAAFDAGVGDMPSWEELVAQHADSVYRLAFRLSGNQHDAEDLTQETFMRVFRSLKGYQPGTFEGWLHRITTNLFLDMVRHRAKIRMEALPEDYERVPGTDMTPEQAYNVSNLDPALQKALDDLSPDFRVAVVLCDVVGMSYDEIADTLGVKMGTVRSRIHRGRSQLRAHLENQATSDEGAQLLLATGR”, the “soluble on expression in E. coli” value is recorded as “not soluble”.

Regarding “MGDKQFAVIGLGRFGLAVCKELQDSGSQVLAVDINEDRVKEAAGFVSQAIVANCTHEETVAELKLDDYDMVMIAIGADVNASILATLIAKEAGVKSVWVKANDRFQARVLQKIGADHIIMPERDMGIRVARKMLDKRVLEFHPLGSGLAMTEFVVGSRLMGKTLSDLALCKVEGVQVLGFKRGPEIIKAPDMSTTLEIGDLIIVVGPQDKLANKLKSLEHHHHHH”, the “soluble on expression in E. coli” value is “soluble”.

Take “MRLRHLSDPDSLPALDKSFAIERPALGLAPDAPPVRILLLYGSLRARSFSRLAVEEAARLLQFFGAETRIFDPSDLPLPDQVQSDDHPAVKELRALSEWSEGQVWCSPERHGQITSVMKAQIDHLPLEMAGIRPTQGRTLAVMQVSGGSQSFNAVNTLRLLGRWMRMFTIPNQSSIAKAFQEFDAAGRMKPSPYYDRIADVMEELVRFTALVRPHREALTDRYSERKAAGHVIDEATDLSSIAIAPQPLPESETS”: the “soluble on expression in E. coli” value is “soluble”.

With “MSLTELLNNLEYKKEQLKKLLLRIHEGESVEKLKEEFRTVLSNISPLEIPLIEQELVKEGISARDIAKMCDLHVELFREAVKGTGEVEEKDLPEGHPLKTLYQENKEIMKDAEMLNLYAKTLATTKDERMREEILGVLEEIVSSLRMVGFTHYNREEMLIFPYIERRGLTVIATVLWTKHDEIRAMIKQLAELLRKREEMPWEEFVEKFKAKAGEVAFALSDMVFRENNIFYPTLKALLSEGEWKAIKMQEDEIGYYKVKPPEWDPGEDVKPLHPWEINPELNVEQLLTLPKEVQQALRGQPLEFDKTQLKREEDIDLGTGYLNIEELKAIFEALPVDVTFIDKDDRVRFFSPGERIFTRTPSVLGRPVQLCHPPKSVYVVNKILKAFKEGRKKEATFWLRLREKYVYIKYVPLFNEKGEYIGTLEMTMDIAPYKKIEGEKRLLDWRDEGHHHHHH”, the “soluble on expression in E. coli” value was “soluble”.

“MGSDKIHHHHHHMAYPNGKLSEEKVFKDPVHRYVHVRDKLIWDLIGTREFQRLRRIKQLGTTYLTFHGAEHSRFNHSLGVYEIVRRMVDDVFKGRPEWDDSERELCLAAALLHDLGHGPFSHSFEKVFHLDHEDFTRGIILGDTEVNQVLRKVSPGFPQDVAEVIAKTYKNKQVVSLISSQIDADRMDYLQRDAYYTGVSYGHFDMERILRVMRPREDQIVIKESGMHAVEDYIMSRYQMYWQVYFHPVTRSAEVILTKILHRAKQLHDEGYVFTHAPVHFYSIFEGKLTLEDYVKLDESIILYYFQAWEDEEDAILSDLCRRFINRQLFQYVEFNPNEEMSAYFELTSLFKEAGIDPSYYLVVDSSSDLPYDFYRPGEEEERLPIHLLTQNGQIKELSRQSAIVESISGKRRTDHKLYYPKDLICDGTKHPEAKMKIRQLLGLT”: the “soluble on expression in E. coli” value is listed as “not soluble”.

For the sequence “MAFNGAMSVGAQISDAVILAHSPKSCTHIMYQTISSAGRRTLFERGALLPVSLAPNLESTDMGEAEMIFGGMEKLEEKILELKARQPRAIVVVSACPAGIIGDDIGRTRRFSEPGLPVVTLKTDGNLAGDYLQGMLMAYTSLARQVIRLEHHHHHH”, the “soluble on expression in E. coli” value is “not soluble”.

With “MSLTRKEKPAKVGGFFVLSYVLGGRLAPASPVASDSNIRLPGGYINNSQKTTIDAVRAALSAARMGTFDTAAGVQSDDDPAALLLYAWNAEVSGAFLAPLHVCEVVIRNAVSDALEALYGPRWPWSATFERSLPDPKQGYSPRRDLQSARRSAQTTGKVIPELKFVFWQKMFTGRYDTRIWDQNLRRVMPNIDPAKPVAALRNAIYGDLERVRLLRNRIAHHEPMFARALADDYQTILVLVTYRCAVTAAWLDSHQTATAIITAKPEGHHHHHH”, the “soluble on expression in E. coli” value is given as “not soluble”.

Consider “MSLKYIVVTGGVMSGLGKGITAASIGRLFVDMGYRVIPIKIDPYINIDAGTMNPFQHGEVYVLKDGTEVDLDLGHYERFIGEEVTGDHNITTGKIYKRVIEKERKGDYLGQTVQIIPHVTDEIKSWIRRVAKESNAEICLVEIGGTVGDIEGMPFLEAIRQMHNEEKEEDFALVHVTLVPLDAGGEQKTKPTQHSVKELRELGLHPDVIVGRCSERLKPATKKKIALFCDVPEEAVISNEDAEDIYEVPLIFKREKLDEYLMRKLNLRAKESRKEWEEMVKRMKTLYEEASIAIVGKYVDVRDAYLSIKEALKHGGIEAGCKVNIVWVDSEDLENVDDFTLDVDGILVPGGFGARGAEGKIRAIEYARENGVPFLGICFGFQLAVIEFARNVVGFSEANSTELDENTPHPVIDLLPEQKGIDEMGGTMRLGDIEVTIKPGTIAHKLYGSEKVVERHRHRYEVNPEYIEKIESKGLVFSAYSDGGRRMEIAELPDHPFFFATQFHPEFKSRPYRPSPPFVGFVRAALKYRREEEIEGHHHHHH”, for which the “soluble on expression in E. coli” value is listed as “soluble”.
